Source: patent US7227009B2, “MT-SP1 polynucleotides and polypeptides” (Catalyst Biosciences, Inc., priority 1999, dated 2007)
Read-outs that look alike come from different tables or passages of the source.

Columns and labels:
[1] = molecular target: T1, His-MT-SP1 protease domain (Homo sapiens, UniProt Q9Y5Y6); experiment: Substrate kinetics of purified His-MT-SP1 protease domain; format: biochemical
T1 construct: made in house; host or cells: E. coli X-90 (pQE30 vector)
Method: The purified serine protease domain was titrated with 4-methylumbelliferyl p-guanidinobenzoate (MUGB) to obtain an accurate concentration of enzyme active sites^(iii). Enzyme activity was monitored at 25° C. in assay buffer containing 50 mM Tris pH 8.8, 50 mM NaCl, and 0.01% Tween 20. The final concentration of substrate Spectrozyme tPA ranged from 1 μM–400 μM. Enzyme concentrations ranged from 40 pM–800 pM. Active site titrations were performed on a Fluoromax-2 spectrofluorimeter. Measurements were plotted using the KaleidaGraph program (Synergy, Reading, Pa.), and the Km, kcat, and kcat/Km for Spectrozyme tPA was determined using the Michaelis-Menten equation.

[2] = molecular target: T2, His-tagged MT-SP1 serine protease domain (Homo sapiens, UniProt Q9Y5Y6); experiment: Inhibition of MT-SP1 protease domain with ecotin and ecotin M84R/M85R; format: biochemical
T2 construct: made in house; host or cells: E. coli X-90 (pQE30 vector)
T2 sequence (Q9Y5Y6 615-855 limits assumed, other chains not shown): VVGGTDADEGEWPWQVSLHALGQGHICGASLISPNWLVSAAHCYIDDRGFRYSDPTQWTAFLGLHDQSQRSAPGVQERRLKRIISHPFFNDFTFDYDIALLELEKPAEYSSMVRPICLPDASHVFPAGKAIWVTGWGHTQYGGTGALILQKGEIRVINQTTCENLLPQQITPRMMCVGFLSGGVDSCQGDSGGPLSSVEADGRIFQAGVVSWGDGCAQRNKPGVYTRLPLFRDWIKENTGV
Method: Ecotin and ecotin M84R/M85R were purified from E. coli as described in copending application Ser. Nos. 09/290,513 and 09/289,830, both filed on Apr. 12, 1999. Various concentrations of ecotin or ecotin M84R/M85R were incubated with the His-tagged serine protease domain in a total volume of 990 μL of buffer containing 50 mM NaCl, 50 mM Tris-HCl (pH 8.8), 0.01% Tween 20. 10 μL of Spectrozyme tPA was added, yielding a solution containing 100 μM substrate. The final enzyme concentration was 63 pM, and the ecotin and ecotin M84R/M85R concentration ranged from 0.1 nM to 50 nM. The data were fit to the equation derived for kinetics of reversible tight-binding inhibitors (Morrison (1969) Biochim. Biophys. Acta 185: 269–286, Williams and Morrison (1979) Methods. Enzymol. 63: 437–467), and the values for apparent Ki were determined.

explanted rat VP = experiment: Rodent ventral prostate (VP) explant culture; format: cell-based; details: for ductal branching morphogenesis and differentiation of rat ventral prostate: explant culture, testosterone-induced
Excerpt: One useful model system for studying many issues that are pertinent to prostate cancer is the development of the rodent ventral prostate (VP) in explant cultures. Macromolecular inhibitors of serine proteases of the chymotrypsin fold, ecotin and ecotin M84R/M85R (see copending application Ser. Nos. 09/290,513 and 09/289,830, both filed on Apr. 12, 1999), inhibit ductal branching morphogenesis and differentiation of the explanted rat VP. […] Thus unidentified serine proteases may play a role in growth and prevention of apoptosis in prostate epithelial cells in this system.

PC-3 primary tumor = experiment: PC-3 implanted nude mice, inhibitor treatment; format: in vivo; details: treated seven weeks, compared to PBS-treated mice after four weeks
Excerpt: Another well characterized model that is derived from human prostate cancer epithelial cells is the PC-3 cell line (Kaighn et al. (1979) Invest. Urology 17: 16–23). The PC-3 cell line expresses uPA as assayed by enzyme-linked immunosorbent assay (ELISA) and by Northern blotting of PC-3 mRNA (Yoshida et al. (1994) Cancer Res. 54: 3300–3304). […] Metastasis from the primary tumors similarly were similarly lower in the inhibitor-treated mice compared to PBS treated mice. Inhibition was not unexpected with ecotin M84R/M85R treatment, since uPA has been implicated in metastasis. […] Thus identification of the serine proteases expressed by PC-3 prostate cells may provide insight into the role of these proteases in cancer and prostate growth and development. In this example we have extended the strategy of using the polymerase chain reaction (PCR) with degenerate oligonucleotide primers that were designed using conserved sequence homology (Sakanari et al. (1989) Proc. Natl. Acad. Sci. USA 86: 4863–4867; Wiegand et al. (1993) Gene 136: 167–175, Kang et al. (1992) Gene 110: 181–187) to identify additional serine proteases made by cancer cells. […]

PC-3 cells = experiment: Subcutaneous coinjection of PC-3 cells with inhibitor; format: in vivo; details: subcutaneous coinjection with PC-3 cells, compared to PC-3 cells and saline
tumor = experiment: Ecotin injected intraperitoneally, tumor growth; format: in vivo
uPA [3] = molecular target: T3, uPA (Homo sapiens, UniProt P00749); details: cited from earlier work
uPA [4] = molecular target: T3, uPA; experiment: Inhibition of uPA; format: biochemical

T1 sequence (Q9Y5Y6 615-855 limits assumed, other chains not shown): as above

Row | Molecule | hydrolysis of pNA substrate by the MT-SP1 protease domain [1] | inhibition of MT-SP1, in words [2] | apoptosis in rat ventral prostate model (explanted rat VP) | ductal branching morphogenesis and differentiation of rat ventral prostate (explanted rat VP) | primary tumor size (PC-3 primary tumor) | primary tumor size (PC-3 cells) | tumor growth (tumor) | inhibition of uPA, in words (uPA [3]) | inhibitor potency against uPA (uPA [3]) | kcat [1] | Km ([1]; 25° C., 50 mM Tris pH 8.8, 50 mM NaCl, 0.01% Tween 20) | kcat ([1]; 25° C., pH 8.8) | fold more potent inhibitor of uPA compared to ecotin (uPA [4])
1 | NC(N)=NCCC[C@H](N)C(=O)Nc1ccc([N+](=O)[O-])cc1 [H-Arg-pNA, arginyl-pNA] | does not cleave | – | – | – | – | – | – | – | – | – | – | – | –
2 | ecotin: Macromolecular inhibitor of serine proteases of the chymotrypsin fold, purified from E. coli | – | potent, subnanomolar inhibitors | enhances | inhibits | significantly smaller | decrease | inhibited | poor, micromolar inhibitor | 2.8 µM | – | – | – | –
3 | hexahydrotyrosyl-Gly-Arg-pNA [Spectrozyme tPA] | – | – | – | – | – | – | – | – | – | 260 s⁻¹ | 31.4 ± 4.2 µM | 2.6×10^2±6.5 s^−1 | –
4 | ecotin M84R/M85R: Engineered version of ecotin, macromolecular inhibitor of chymotrypsin-fold serine proteases (protein) AESVQPLEKIAPYPQAEKGMKRQVIQLTPQEDESTLKVELLIGQTLEVDCNLHRLGGKLENKTLEGWGYDYYVFDKVSSPVSTRRACPDGKKEKKFVTAYLGDAGMLRYNSKLPIVVYTPDNVDVKYRVWKAEEKIDNAVVR | – | potent, subnanomolar inhibitors | enhances | inhibits | significantly smaller | decrease | – | – | 0.001 µM | – | – | – | 2800 fold
